Experimental data as given in patent US20130330358A1 (UNIVERSITY OF SOUTHERN CALIFORNIA, published 2013).

Key:
[1] = target: HAUSP TRAF domain (HAUSP^62-205) (human); assay: competitive ITC: vIRF4^202-216 titrated into TRAF pre-titrated with p53^355-369 (competitor)
[2] = target: HAUSP TRAF domain (HAUSP^62-205) (human); assay: competitive ITC: vIRF4^202-216 titrated into TRAF pre-titrated with MDM2^137-152 (competitor)
[3] = target: HAUSP TRAF domain (HAUSP^62-205) (human); assay: ITC, titration against HAUSP TRAF domain, 20 °C
[4] = target: HAUSP TRAF domain (HAUSP^62-205) (human); assay: competitive ITC: vIRF4^202-216 titrated into TRAF pre-titrated with p53^350-364 (competitor)
[5] = target: HAUSP TRAF domain (HAUSP^62-205) (human); assay: ITC

Chain of HAUSP TRAF domain (HAUSP^62-205) (human) (chain, as listed by the source): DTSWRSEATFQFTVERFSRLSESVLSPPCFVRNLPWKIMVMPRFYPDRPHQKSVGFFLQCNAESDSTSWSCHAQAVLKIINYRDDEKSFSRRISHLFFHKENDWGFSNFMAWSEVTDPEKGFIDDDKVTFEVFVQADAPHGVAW

Binder | ΔHobs [1] | ΔHobs [2] | TΔS [3] | ΔG [3] | ΔH [3] | ΔHobs [4] | fold higher affinity (against vIRF4^153-216) [5]
SVWIPVNEGASTSGM (Synthesized peptide (Peptron); also called vif1 peptide) [vIRF4^202-216 peptide (vif1)] | -19.1 kcal/mol | -25.9 kcal/mol | -10.6 kcal/mol | -8.6 kcal/mol | -19.2 kcal/mol | -19.1 kcal/mol | –
vIRF4^153-256 (other) SDTREQSYEEAGAAAPAPPKAPSGLRGRPRKSNRYYNVGDITTEQKAACSVWIPVNEGASTSGMGSSGTRQVTQASSFTWRVPGDPPAPSTLTGPSDPHSSGAG | – | – | – | – | – | – | 7 fold
